In PMC11924222, “Integrated Study of Fluorescence Enhancement in the Y176H Variant of Cyanobacterial Phytochrome Cph1” (Biochemistry, 2025):

B1: Cph1 Y176H variant of the Cph1 photosensory module (residues 1-514; NTS, nPAS, GAF and PHY domains), crystallization construct with N141R (domain or fragment, Synechocystis 6803, UniProt Q55168 1-514, looked up)
chain: MATTVQLSDQSLRQLETLAIHTAHLIQPHGLVVVLQEPDLTISQISANCTGILGRSPEDLLGRTLGEVFDSFQIDPIQSRLTAGQISSLNPSKLWARVMGDDFVIFDGVFHRNSDGLLVCELEPAYTSDNLPFLGFYHMARAALNRLRQQANLRDFYDVIVEEVRRMTGFDRVMLHRFDENNHGDVIAEDKRDDMEPYLGLHYPESDIPQPARRLFIHNPIRVIPDVYGVAVPLTPAVNPSTNRAVDLTESILRSAYHCHLTYLKNMGVGASLTISLIKDGHLWGLIACHHQTPKVIPFELRKACEFFGRVVFSNISAQEDTETFDYRVQLAEHEAVLLDKMTTAADFVEGLTNHPDRLLGLTGSQGAAICFGEKLILVGETPDEKAVQYLLQWLENREVQDVFFTSSLSQIYPDAVNFKSVASGLLAIPIARHNFLLWFRPEVLQTVNWGGDPNHAYEATQEDGKIELHPRQSFDLWKEIVRLQSLPWQSVEIQSALALKKAIVNLILRQAEE
modifications: phycocyanobilin (PCB) chromophore covalently attached to Cys259
notes: Cyanobacterial phytochrome Cph1 from Synechocystis 6803, photosensor residues 1-514 (NTS, nPAS, GAF and PHY domains), with Y176H and, for crystallization, N141R; PDB 2VEA is the wild-type parent; not shown: His6, N-terminal, cleaved

What was measured:
[1] = molecular target: His260 (UniProt position 260, SAYHCHLTYLK); test: not stated for the pKa value; the article cites resonance Raman, MAS NMR and absorption studies; conditions: Pr (dark-adapted) state, PCB-bound holoprotein; cited from earlier work
[2] = molecular target: the molecule itself; test: crystal structure; X-ray, 3.7 Å; crystals grown in 0.3 M ammonium formate, 0.1 M HEPES pH 6.9, 18% Sokalan CP7; four protomers in the asymmetric unit

Row | Molecule | pKa [1] | binding result [2]
1 | Phytochrome-like protein Cph1 (cyanobacterial phytochrome 1), photosensory module, wild type (Synechocystis sp. PCC 6803) | 7.5 | –
2 | B1 | – | binds
